Target: T1, His-tagged Gp44, full length (1–237) (bacteriophage SPO1)
T1 construct: Gp44, product of gene 44 of bacteriophage SPO1 of Bacillus subtilis, full length, residues 1-237, 27 kDa; The purified constructs came from pET-46 EK/LIC, which adds an N-terminal His-tag; C-terminal His-tagged and tag-free constructs (pDE2) were also made; PDB 6L6V holds only residues 1-55; also called Gp44^(1–237); recombinant Gp44; not shown: His-tag, N-terminal, kept
Assay: ITC; MicroCal PEAQ-ITC, 25°C, dialysis buffer; 30 μM β or β′ subunit in the cell, 300 μM Gp44 in the syringe, 19 injections of 2 μL at 120 s intervals
Conditions: both partners purified

B1: recombinant RNAP β subunit used in ITC (species not named) (natural protein)
chain: MTGQLVQYGRHRQRRSYARISEVLELPNLIEIQTSSYQWFLDEGLREMFQDISPIEDFTGNLSLEFIDYSLGEPKYPVEESKERDVTYSAPLRVKVRLINKETGEVKDQDVFMGDFPIMTDTGTFIINGAERVIVSQLVRSPSVYFSGKVDKNGKKGFTATVIPNRGAWLEYETDAKDVVYVRIDRTRKLPVTVLLRALGFGSDQEILDLIGENEYLRNTLDKDNTENSDKALLEIYERLRPGEPPTVENAKSLLDSRFFDPKRYDLANVGRYKINKKLHIKNRLFNQRLAETLVDPETGEILAEKGQILDRRTLDKVLPYLENGIGFRKLYPNGGVVEDEVTLQSIKIFAPTDQEGEQVINVIGNAYIEEEIKNITPADIISSISYFFNLLHGVGDTDDIDHLGNRRLRSVGELLQNQFRIGLSRMERVVRERMSIQDTNTITPQQLINIRPVIASIKEFFGSSQLSQFMDQTNPLAELTHKRRLSALGPGGLTRERAGMEVRDVHYSHYGRMCPIETPEGPNIGLINSLSSYAKVNRFGFIETPYRRVDPETGKVTGRIDYLTADEEDNYVVAQANARLDDEGAFIDDSIVARFRGENTVVSRNRVDYMDVSPKQVVSAATACIPFLENDDSNRALMGANMQRQAVPLMQPEAPFVGTGMEYVSGKDSGAAVICKHPGIVERVEAKNVWVRRYEEVDGQKVKGNLDKYSLLKFVRSNQGTCYNQRPIVSVGDEVVKGEILADGPSMELGELALGRNVMVGFMTWDGYNYEDAIIMSERLVKDDVYTSIHIEEYESEARDTKLGPEEITRDIPNVGEDALRNLDDRGIIRIGAEVKDGDLLVGKVTPKGVTELTAEERLLHAIFGEKAREVRDTSLRVPHGGGGIIHDVKVFNREDGDELPPGVNQLVRVYIVQKRKISEGDKMAGRHGNKGVISKILPEEDMPYLPDGTPIDIMLNPLGVPSRMNIGQVLELHMGMAARYLGIHIASPVFDGAREEDVWETLEEAGMSRDAKTVLYDGRTGEPFDNRVSVGIMYMIKLAHMVDDKLHARSTGPYSLVTQQPLGGKAQFGGQRFGEMEVWALEAYGAAYTLQEILTVKSDDVVGRVKTYEAIVKGDNVPEPGVPESFKVLIKELQSLGMDVKILSGDEEEIEMRDLEDEEDAKQADGLALSGDEEPEETASADVERDVVTKE
B1 was tested, and the Kd was 3.46 ± 0.27 µM.

From publication PMC8208478, “A Bacteriophage DNA Mimic Protein Employs a Non-specific Strategy to Inhibit the Bacterial RNA Polymerase” (Frontiers in Microbiology, 2021)
